Measurements: publication PMC11742915 (Nature Communications, 2025)

Tests used:
IFNλR1 (Homo sapiens) = IFNλR1 (Homo sapiens) (UniProt Q8IU57); conditions: cited from earlier work
IFNλR1 [1] = target: T1, IFNλR1 (UniProt Q8IU57 21-226, biotin (in SPR, MST and yeast staining); fluorescent dye NanoTemper NT-L020 (in MST)); test: cell-based or functional assay
IFNλR1 [2] = target: T1, IFNλR1; test: SPR; Biacore T200, 22 °C, equilibrium method; ~850 RU biotinylated IFNλR1 captured on a Biotin CAPture chip, IFNλ4 as analyte, nine points; 10 mM MES pH 5.6, 500 mM NaCl, 10% glycerol, 0.05% Tween20; 1:1 binding model; conditions: both partners purified
IFNλ4 = target: T2, IFNλ4 (human, UniProt K9M1U5-1 22-179); test: MST
T2 chain: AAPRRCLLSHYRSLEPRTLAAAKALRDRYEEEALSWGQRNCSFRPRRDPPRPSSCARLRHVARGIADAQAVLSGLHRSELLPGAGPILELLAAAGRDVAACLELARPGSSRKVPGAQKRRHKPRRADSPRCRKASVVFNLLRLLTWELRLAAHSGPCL

IFNλ3 = target: T3, IFNλ3 (UniProt Q8IZI9 34-196); test: MST
T3 chain: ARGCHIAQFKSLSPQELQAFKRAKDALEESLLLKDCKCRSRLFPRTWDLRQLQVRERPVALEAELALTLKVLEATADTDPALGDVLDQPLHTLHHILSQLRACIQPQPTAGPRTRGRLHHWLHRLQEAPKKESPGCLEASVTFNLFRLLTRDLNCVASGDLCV

IFNλ3 (from UniProt Q8IZI9)
Kd (IFNλR1 (Homo sapiens)): 0.85 µM

B1: IFNλ4 (ligand, human, UniProt K9M1U5-1 22-179, looked up)
chain: AAPRRCLLSHYRSLEPRTLAAAKALRDRYEEEALSWGQRNCSFRPRRDPPRPSSCARLRHVARGIADAQAVLSGLHRSELLPGAGPILELLAAAGRDVAACLELARPGSSRKVPGAQKRRHKPRRADSPRCRKASVVFNLLRLLTWELRLAAHSGPCL
notes: codon-optimised gene; also called interferon lambda 4; source: insect Hi5 cells (baculovirus), secreted as sfGFP-10RB-IFNλ4, cleaved with 3C protease, purified (S75 Superdex)
pSTAT1 signaling in Hap1 cells, EC50 relative to IFNλ3 (IFNλR1 [1]): 20 fold
Kd (IFNλR1 [2]): 0.191 µM

B2: IFNλR1 (receptor)
chain: RPRLAPPQNVTLLSQNFSVYLTWLPGLGNPQDVTYFVAYQSSPTRRRWREVEECAGTKELLCSMMCLKKQDLYNKFKGRVRTVSPSSKSPWVESEYLDYLFEVEPAPPVLVLTQTEEILSANATYQLPPCMPPLDLKYEVAFWKEGAGNKTLFPVTPHGQPVQITLQPAASEHHCLSARTIYTFSVPKYSKFSKPTCFLLEVPEAN
modifications: biotin (in SPR, MST and yeast staining); fluorescent dye NanoTemper NT-L020 (in MST)
Kd (IFNλ4): 0.396 µM
Kd (IFNλ3): 1.58 µM
